Data on 3 substances can be found in publication PMC6028548.

Assay [1] addresses Kif18b-GFP-His (full-length Kif18-GFP-6×His) (human). The experiment in a line: single-molecule photobleaching (TIRF microscopy); Kif18b-GFP motors moving on GMP-CPP–stabilized microtubules; bleaching steps and intensities of GFP.
Assay [2] concerns the target GMP-CPP–stabilized microtubules and dynamic microtubules grown from GMP-CPP seeds (TIRF assays) (UniProt P02550). Briefly: single-molecule TIRF microscopy; rhodamine-labeled GMP-CPP microtubules held on the glass by anti–β-tubulin antibodies; 1–10 nM motor in BRB80 with 1 mM ATP, 0.5 mg/ml casein, oxygen scavengers; 37°C.
Assay [3] deals with Kif18b-GFP-His (full-length Kif18-GFP-6×His) (human). Briefly: SEC-MALS; Superdex 200 10/300 GL, MiniDAWN detector; Kif18b-GFP-His at 0.3 mg/ml in gel filtration buffer (25 mM Hepes, pH 7.5, 150 mM NaCl, 300 mM KCl, 5 mM β-mercaptoethanol, 1 mM MgCl2, 1 mM Na-EGTA, 1 mM ATP). Background: Size exclusion chromatography separates by hydrodynamic size, large species first.
The next assay has as its target Kif18b_(500–593) (human). The experiment in a line: SEC-MALS; Superdex 200 10/300 GL, MiniDAWN detector; protein at 2 mg/ml.

For orientation: stoichiometry N means a count of units in the complex or per binding partner. With “Kif18b-GFP-His (full-length Kif18-GFP-6×His) (natural protein)”, the stoichiometry N in assay [1] and in assay [3] was 2 each time. In assay [2], the dwell time at the microtubule plus end came to 22.8 s.

As to Kif18bΔC-GFP-His (domain or fragment), the dwell time at the microtubule plus end in assay [2] was 8.5 s.

Take Kif18b_(500–593) (domain or fragment): the stoichiometry N with Kif18b_(500–593) (human) stood at 2.
